# In patent publication US20250066422A1 (published 2025):
# Target: T1, HLA-A*0201 (human)
# T1 construct: MHC monomer first loaded with a UV-sensitive peptide that is cleaved and exchanged for the test peptide; captured on streptavidin; also called peptide-receptive MHC molecules
# Test: UV-ligand exchange, streptavidin/anti-b2m sandwich ELISA
# Text: Candidate peptides for the vaccines according to the present invention were further tested for immunogenicity by in vitro priming assays. The individual peptide-MHC complexes required for these assays were produced by UV-ligand exchange, where a UV-sensitive peptide is cleaved upon UV-irradiation, and exchanged with the peptide of interest as analyzed. Only peptide candidates that can effectively bind and stabilize the peptide-receptive MHC molecules prevent dissociation of the MHC complexes. To determine the yield of the exchange reaction, an ELISA was performed based on the detection of the light chain (β2m) of stabilized MHC complexes.
# 96 well MAXISorp plates (NUNC) were coated over night with 2ug/ml streptavidin in PBS at room temperature, washed 4× and blocked for 30 min at 37° C. in 2% BSA containing blocking buffer. Refolded HLAA*0201/MLA-001 monomers served as standards, covering the range of 8-500 ng/ml. Peptide-MHC monomers of the UV-exchange reaction were diluted 100 fold in blocking buffer. Samples were incubated for 1 h at 37° C., washed four times, incubated with 2ug/ml HRP conjugated anti-β2m for 1 h at 37° C., washed again and detected with TMB solution that is stopped with […]. Absorption was measured at 450 nm.
row,Binder,Average exchange yield in % [%]
1,HLLEDIAHV (synthetic peptide from NEFH) [NEFH-001],50
2,TVIGFLLPFA (synthetic peptide from P2RY6) [P2RY6-001],91
3,FLHHLEIEL (synthetic peptide from ITGA11) [ITGA11-001],53
4,NLLAEIHGV (synthetic peptide from DPYSL4) [DPYSL4-001],77
5,ALYGRLEVV (synthetic peptide from ANKS1A) [ANKS1A-001],78
6,ILMGTELTQV (synthetic peptide from OLFM1) [OLFM1-001],48
7,FLIPIYHQV (synthetic peptide from ACACA) [ACACA-001],61
8,ALDENLHQL (synthetic peptide from ABCA13) [ABCA13-002],36
9,"SMSGYDQVL (synthetic peptide from HNRNPH1, HNRNPH2) [HNRNPH-001]",26
10,KLSWDLIYL (synthetic peptide from CERCAM) [CERC-001],62
11,NLIEKSIYL (synthetic peptide from DST) [DST-001],50
12,AIDGNNHEV (synthetic peptide from GFPT2) [GFPT2-001],43
13,KLLEYIEEI (synthetic peptide from HMMR) [HMMR-001],49
14,KIYNEFISV (synthetic peptide from RGS4) [RGS4-001],49
15,"FQYDHEAFL (synthetic peptide from RCN1, RCN3) [RCN1-001]",75
16,YLPHAPPFA (synthetic peptide from JUNB) [JUNB-001],51
17,RVLPPSALQSV (synthetic peptide from AURKB) [AURKB-001],54
18,TVAEVIQSV (synthetic peptide from KIF26B) [KIF26B-001],68
19,TLISRLPAV (synthetic peptide from RCC1) [RCC1-001],77
20,AMLAVLHTV (synthetic peptide from C12orf44) [C12orf44-001],34
21,ILFPDIIARA (synthetic peptide from MAGEF1) [MAGEF1-001],83
22,ALASVIKEL (synthetic peptide from IFT81) [IFT81-001],57

row,Binder,Average exchange yield in % [%]
1,ALANQKLYSV (synthetic peptide from MDN1) [MDN1-001],67
2,SISDVIAQV (synthetic peptide from ANKH) [ANKH-001],52
3,KIQEILTQV (synthetic peptide from IGF2BP3) [IGF2BP3-001],46
4,YLAPFLRNV (synthetic peptide from CNOT1) [CNOT1-001],57
5,KLAVALLAA (synthetic peptide from IL8) [IL8-001],41
6,"SILTIEDGIFEV (synthetic peptide from HSPA2, HSPA8) [HSP-002]",47
7,ILVSWLPRL (synthetic peptide from NET1) [NET1-001],82
8,KVLEILHRV (synthetic peptide from HERC4) [HERC4-001],61
9,TLTNIIHNL (synthetic peptide from ORMDL1) [ORMDL1-002],61
10,SLIEDLILL (synthetic peptide from SMYD3) [SMYD3-001],50
11,SLVAVELEKV (synthetic peptide from COG4) [COG4-001],57
12,ALWEKNTHL (synthetic peptide from CEP250) [CEP250-002],70
13,GLTDNIHLV (synthetic peptide from MXRA5) [MXRA5-002],56
14,"SLYDNQITTV (synthetic peptide from SLIT1, SLIT2) [SLI-001]",47
15,GLAEDIDKGEV (synthetic peptide from EEF2) [EEF2-002],31
16,VLLPVEVATHYL (synthetic peptide from SLC34A2) [SLC34A2-001],51
17,YVYQNNIYL (synthetic peptide from FAP) [FAP-003],31
18,KIVDFSYSV (synthetic peptide from BUB1B) [BUB1B-001],59
19,AMFENFVSV (synthetic peptide from NCBP1) [NCBP1-001],65
20,KLFGEKTYL (synthetic peptide from SERPINB3) [SERPINB3-001],47
21,AMATESILHFA (synthetic peptide from PI4KA) [PI4KA-001],51
22,AMSSKFFLV (synthetic peptide from WNT5A) [WNT5A-001],37

# Further lines, results first:
row,Average exchange yield in % [%],Binder
1,62,GLYPDAFAPV (synthetic peptide from ELANE) [ELANE-001]
2,57,TLSSIKVEV (synthetic peptide from MXRA5) [MXRA5-001]
3,69,SLLPVDIRQYL (synthetic peptide from STAT2) [STAT2-001]
4,63,SLWGGDVVL (synthetic peptide from VPS13B) [VPS13B-001]
5,93,ILFEINPKL (synthetic peptide from ABCA13) [ABCA13-001]
6,48,ILQDRLNQV (synthetic peptide from CDC6) [CDC6-001]
7,19,"SLHFLILYV (synthetic peptide from ATP2A1, ATP2A2) [ATP-001]"
8,41,TLYPHTSQV (synthetic peptide from VCAN) [VCAN-001]
9,52,"VLAPLFVYL (synthetic peptide from FZD1, FZD2, FZD7) [FZD-001]"
10,76,SLAGDVALQQL (synthetic peptide from NCAPD2) [NCAPD2-001]
11,47,VVDKTLLLV (synthetic peptide from C11orf24) [C11orf24-001]
12,47,AILDTLYEV (synthetic peptide from PLEKHA8) [PLEKHA8-001]
13,59,KLDETNNTL (synthetic peptide from DST) [DST-002]
14,84,VLSVVEVTL (synthetic peptide from RNF213) [RNF213-001]
15,81,FLLDGSANV (synthetic peptide from COL6A3) [COL6A3-002]
16,65,SLLAQNTSWLL (synthetic peptide from THY1) [THY1-001]
17,57,KIQEMQHFL (synthetic peptide from MMP12) [MMP12-003]
18,54,GLIEIISNA (synthetic peptide from SNRNP200) [SNRNP20-001]
19,54,SLIDADPYL (synthetic peptide from CCNA2) [CCNA2-001]
20,56,SLLESNKDLLL (synthetic peptide from SLC3A2) [SLC3A2-001]
21,49,ALVDHTPYL (synthetic peptide from VCAN) [VCAN-002]
22,67,KLLTEVHAA (synthetic peptide from ADAM8) [ADAM8-001]
23,50,ALYDSVILL (synthetic peptide from DIO2) [DIO2-001]
24,70,SLAPAGVIRV (synthetic peptide from TLX3) [TLX3-001]
